Reference: US20180355396, “Biosensors for Organic and Inorganic Arsenic” (THE FLORIDA INTERNATIONAL UNIVERSITY BOARD OF TRUSTEES, published 2018)

Target: T1, AfArsR C102S (Acidithiobacillus ferrooxidans, UniProt B7J952 B7J952:1-118, C102S)
T1 sequence: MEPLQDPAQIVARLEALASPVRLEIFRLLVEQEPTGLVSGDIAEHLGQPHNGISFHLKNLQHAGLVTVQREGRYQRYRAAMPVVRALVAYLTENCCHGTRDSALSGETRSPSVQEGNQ
Experiment: FP; anisotropy; complex little affected by As(III) up to 40 uM, dissociated by MAs(III), Rox(III), PhAs(III); same buffer
Conditions: tags: C-terminal His tag (pBADarsR, E. coli Top10); chain copies: 2 (homodimer, inferred); label: 5'-6-FAM

B1: ars operator/promoter 30-mer (arsO) (dsDNA)
DNA 1: ATCCACGAATATTTCTTGCAGTATTGACAA
DNA 2: TTGTCAATACTGCAAGAAATATTCGTGGAT
Q: Does B1 bind?
A: binds
